According to article PMC9802395 (2022):
Where a chain is given by its changes, count along the chain named. Where two headings read alike, the source gives them in different places.

B1: NJB2-IL2 (NJB2 nanobody fused to murine IL-2) (VHH)
VHH: QVQLVETGGGLVQAGGSLRLSCAASGSTFSHNAGGWYRQAPEKQRELVAGISSDGNINYADSVKDRFTISRDNASNTMYLQMNNLKPEDTAVYVCNIRGSYGNTYYSRWGQGTQVTVSS
B2: LMJ1.2C nanobody, biotin-tagged (VHH)
VHH: B1 VHH with N32S, S52R
modifications: biotin at the C-terminus via sortase-mediated tagging (nucleophile GGGK-Biotin)
B3: LMJ2.5I-IL2 (LMJ2.5I nanobody fused to murine IL-2) (VHH)
VHH: B1 VHH with Q1R, A24V, N32S, S52R, T113A
B4: LMJ2.5I nanobody, biotin-tagged (VHH)
VHH: B1 VHH with Q1R, A24V, N32S, S52R, T113A
modifications: biotin at the C-terminus via sortase-mediated tagging (nucleophile GGGK-Biotin)
B5: NJB2-IL2-mt (NJB2 fused to murine IL-2 bearing point mutations that abrogate cytokine activity) (VHH)
VHH: B1 VHH
B6: LMJ1.2C-IL2 (LMJ1.2C nanobody fused to murine IL-2) (VHH)
VHH: B1 VHH with N32S, S52R
B7: biotinylated EIIIB (protein fragment of fibronectin splice variant EIIIB) (domain or fragment)
chain: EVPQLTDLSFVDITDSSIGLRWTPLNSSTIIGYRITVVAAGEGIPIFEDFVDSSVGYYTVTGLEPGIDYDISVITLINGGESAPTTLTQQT
modifications: biotin (ChromaLink NHS-biotin reagent)

Experiments:
Experiment in all cases: BLI
[1] = biological target: B7
[2] = biological target: B7; remark: listed apart in the source
[3] = biological target: B7; remark: listed apart in the source
[4] = biological target: B7; remark: listed apart in the source
LMJ2.6A = biological target: LMJ2.6A
Sequence of LMJ2.6A (P02751 1266-1356): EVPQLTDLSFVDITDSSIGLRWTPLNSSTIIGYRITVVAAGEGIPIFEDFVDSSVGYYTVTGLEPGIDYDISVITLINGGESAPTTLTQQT

LMJ1.3J = biological target: LMJ1.3J
Sequence of LMJ1.3J (P02751 1266-1356): as above

LMJ2.5C = biological target: LMJ2.5C
Sequence of LMJ2.5C (P02751 1266-1356): as above

LMJ2.5J = biological target: LMJ2.5J
Sequence of LMJ2.5J (P02751 1266-1356): as above

LMJ1.2G = biological target: LMJ1.2G
Sequence of LMJ1.2G (P02751 1266-1356): as above

LMJ2.4C = biological target: LMJ2.4C
Sequence of LMJ2.4C (P02751 1266-1356): as above

LMJ2.5G = biological target: LMJ2.5G
Sequence of LMJ2.5G (P02751 1266-1356): as above

LMJ2.5H = biological target: LMJ2.5H
Sequence of LMJ2.5H (P02751 1266-1356): as above

NJB2 = biological target: NJB2
Sequence of NJB2 (P02751 1266-1356): as above

Binder: B1
Kd [1]: 1100 pM | koff [2]: 0.000289 s⁻¹ | Kd [3]: 996 pM

Binder: B2
koff [4]: 0.00015 s⁻¹

Binder: B3
koff [2]: < 1e-07 s⁻¹ | Kd [3]: < 1 pM

Binder: B4
koff [4]: 2.49e-05 s⁻¹

Binder: B5
Kd [1]: 1600 pM

Binder: B6
koff [2]: 5.06e-06 s⁻¹ | Kd [3]: 14.4 pM

Binder: B7
Kd (LMJ2.6A): 344 pM | koff (LMJ2.6A): 7.47e-05 s⁻¹ | Kd (LMJ1.3J): 402 pM | koff (LMJ1.3J): 0.000305 s⁻¹ | Kd (LMJ2.5C): 78.5 pM | koff (LMJ2.5C): 3.52e-05 s⁻¹ | Kd (LMJ2.5J): 62.2 pM | koff (LMJ2.5J): 4.45e-05 s⁻¹ | Kd (LMJ1.2G): 973 pM | koff (LMJ1.2G): 0.000475 s⁻¹ | Kd (LMJ2.4C): 62.6 pM | koff (LMJ2.4C): 4.8e-05 s⁻¹ | Kd (LMJ2.5G): 166 pM | koff (LMJ2.5G): 9.13e-05 s⁻¹ | Kd (LMJ2.5H): 227 pM | koff (LMJ2.5H): 0.000136 s⁻¹ | Kd (NJB2): 1820 pM | koff (NJB2): 0.00104 s⁻¹
